Measurements as given in patent US20120034231A1.

What was measured:
human IL12Rβ1 (human) = human IL12Rβ1 (human) (UniProt P42701); experiment: FACS on Baf3 cells transfected with human IL12Rβ1, mouse control mAb
[1] = molecular target: cynomolgus IL12Rβ1 (cynomolgus); experiment: FACS on Baf3 cells transfected with cyno IL12Rβ1, mouse control mAb

## Mab839 (mouse monoclonal anti-human IL12Rβ1 control antibody, R&D Systems, Cat# MAB839)
Human IL12Rβ1 (human)
  EC50: 2.35 nM
[1]
  EC50: 1.47 nM
